Source: patent US20130177579A1 (BIOALLIANCE C V, published 2013)

Columns and labels:
[1] = biological target: human transferrin receptor expressed by nonhematopoietic cancer cells (human) (UniProt P02786); test: FACS, H358 cells, 1X
[2] = biological target: human transferrin receptor expressed by nonhematopoietic cancer cells (human) (UniProt P02786); test: FACS, H358 cells, 1/10X
[3] = biological target: human transferrin receptor expressed by nonhematopoietic cancer cells (human) (UniProt P02786); test: FACS, HEC-1-A cells, 1/5X
[4] = biological target: human transferrin receptor expressed by nonhematopoietic cancer cells (human) (UniProt P02786); test: FACS, MDA-MB-453 cells, 1/5X
[5] = biological target: human transferrin receptor expressed by nonhematopoietic cancer cells (human) (UniProt P02786); test: FACS, Panc02.03B cells, 1/5X
[6] = biological target: T1, human transferrin receptor expressed by normal human cells (RBC, PMN, lymphocytes, monocytes, platelets, … (human, UniProt P02786 1-760)); test: FACS, HUVEC, 1/10x
T1 construct: The assay is whole-cell FACS on normal donor cells; also called TfR on normal cells
T1 sequence (P02786 whole entry G142S): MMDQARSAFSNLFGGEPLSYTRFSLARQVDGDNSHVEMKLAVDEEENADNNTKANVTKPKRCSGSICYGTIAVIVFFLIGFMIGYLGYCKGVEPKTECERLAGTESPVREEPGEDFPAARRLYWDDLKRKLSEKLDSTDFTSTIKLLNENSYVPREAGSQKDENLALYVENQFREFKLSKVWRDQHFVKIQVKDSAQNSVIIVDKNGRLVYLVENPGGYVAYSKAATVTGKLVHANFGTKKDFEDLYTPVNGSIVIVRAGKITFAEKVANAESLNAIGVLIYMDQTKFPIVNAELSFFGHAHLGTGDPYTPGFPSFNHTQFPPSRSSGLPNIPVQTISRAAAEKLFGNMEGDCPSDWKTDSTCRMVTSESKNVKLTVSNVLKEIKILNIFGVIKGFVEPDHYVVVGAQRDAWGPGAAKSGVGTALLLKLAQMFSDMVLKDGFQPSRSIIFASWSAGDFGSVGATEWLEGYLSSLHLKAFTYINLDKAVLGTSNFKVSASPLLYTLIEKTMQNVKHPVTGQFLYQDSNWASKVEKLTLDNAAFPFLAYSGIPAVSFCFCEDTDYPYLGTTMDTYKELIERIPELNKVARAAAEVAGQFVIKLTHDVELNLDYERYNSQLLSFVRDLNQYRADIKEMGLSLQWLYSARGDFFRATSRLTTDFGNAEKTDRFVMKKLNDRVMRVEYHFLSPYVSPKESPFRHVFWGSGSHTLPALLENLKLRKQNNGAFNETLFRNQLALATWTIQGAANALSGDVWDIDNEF
Description: (§1) The hyper-immuned serum (Hyp-serum) or the corresponding cell marker antibodies for certain cell types were included as positive controls.
(§2) 1×10⁵ cells were seeded in each well of a v-bottomed 96-well plate and incubated with 50 μl of hybridoma culture supernatant at 1× and 10× dilution, or isotype control antibody mouse IgM, κ (BD™, Cat. No. 557275) at concentration of 1 μg/ml. A 300× dilution of human cell hyper-immune serum was used as binding positive control for all cell types. PE-conjugated anti-human CD41a (Southern Biotech™, Cat. No. 9391-09) was used as a positive control for staining human platelets. Anti-sialyl Lewis x antibody (Millipore™, Cat. No. MAB2096) was used as a positive control for staining human PMN. Anti-human CD31 (Hycult™, Cat. No. HM2039) was used as a positive control for staining HUVEC. After 30 minutes incubation at 4° C., cells were washed twice with 200 μl FACS buffer (1×PBS containing 1% FBS), stained with 50 μl of 1 μg/ml goat F(ab′)2-anti-mouse IgG(H+L)-PE (Southern Biotech™, Cat. No. 1032-09) or 1 μg/ml goat F(ab′)2-anti-mouse IgM(H+L)-PE (Southern Biotech™, Cat. No. 1022-09) in FACS buffer. After 30 minutes of incubation at 4° C., cells were washed twice with FACS buffer and analyzed by flow cytometry (BD LSR, BD Life Sciences).

[7] = biological target: T2, human transferrin receptor expressed by Jurkat cells (human, UniProt P02786 1-760); test: FACS, Jurkat cells, 1X
T2 construct: Endogenous receptor on Jurkat cells; MEM189 was the positive control; also called TfR on T leukemia cell line Jurkat
T2 sequence (P02786 whole entry G142S): as above

[8] = biological target: T1, human transferrin receptor expressed by …; test: FACS, PMN, donor D102, 1x
Description: (§3) Preparation of PBMC and PMN: The whole blood was diluted with an equal volume of PBS and mixed with 1/10 volume of 15% Dextran solution. […] After centrifugation at 2200 rpm for 15 min (rotor: SORVALL, PN11788 and centrifuge: SORVALL, RT7), PBMC concentrated in the interface, were collected and washed with large volumes of FACS buffer (2% FBS in PBS) for future use. The PMN-rich pellet was collected, from which residual RBC was removed by hypotonic lysis in 0.2% NaCl.
as §2

[9] = biological target: T2, human transferrin receptor expressed by …; test: FACS, Jurkat cells, 1/10X
[10] = biological target: T1, human transferrin receptor expressed by …; test: FACS, PMN, donor D014, 1/10x
Description: as §3, §2

[11] = biological target: T1, human transferrin receptor expressed by …; test: FACS, PMN, donor D102, 1/10x
Description: as §3, §2

[12] = biological target: T1, human transferrin receptor expressed by …; test: FACS, RBC, donor D014, 1/10x
Description: as §1, §2

[13] = biological target: T1, human transferrin receptor expressed by …; test: FACS, RBC, donor D016, 1/10x
Description: as §1, §2

[14] = biological target: T1, human transferrin receptor expressed by …; test: FACS, RBC, donor D102, 1/10x
Description: as §1, §2

[15] = biological target: T1, human transferrin receptor expressed by …; test: FACS, lymphocytes, donor D005, 1x
Description: as §1, §2

[16] = biological target: T1, human transferrin receptor expressed by …; test: FACS, monocytes, donor D005, 1/10x
Description: as §3, §2

[17] = biological target: T1, human transferrin receptor expressed by …; test: FACS, monocytes, donor D016, 1/10x
Description: as §1, §2

[18] = biological target: T1, human transferrin receptor expressed by …; test: FACS, platelets, donor D102, 1/10x
Description: as §1, §2

[19] = biological target: T1, human transferrin receptor expressed by …; test: FACS, lymphocytes, donor D005, 1/10x
Description: as §3, §2

[20] = biological target: T1, human transferrin receptor expressed by …; test: FACS, lymphocytes, donor D014, 1/10x
Description: as §3, §2

[21] = biological target: T1, human transferrin receptor expressed by …; test: FACS, lymphocytes, donor D102, 1/10x
Description: as §3, §2

Chain of human transferrin receptor expressed by nonhematopoietic cancer cells (human) (P02786 whole entry G142S): as above

Row | MFI [1] | MFI [2] | MFI [3] | MFI [4] | MFI [5] | % positive cell binding [6] | % of gated cells [7] | % positive cell binding [8] | % of gated cells [9] | % positive cell binding [10] | % positive cell binding [11] | % positive cell binding [12] | % positive cell binding [13] | % positive cell binding [14] | % positive cell binding [15] | % positive cell binding [16] | % positive cell binding [17] | % positive cell binding [18] | % positive cell binding [19] | % positive cell binding [20] | Binder | further results
1 | 942 MFI | 2460 MFI | 15 MFI | 16 MFI | 4670 MFI | 1% | 1% | 1% | < 1% | < 1% | 1% | 1% | 1% | < 1% | < 1% | 4% | 1% | < 1% | 1% | 1% | antibody 122-72 (antibody, V domains shown, Mouse IgM, kappa from a hybridoma; tested as hybridoma culture supernatant; Antibody 60-43 is said to have the same CDRs) VH: EVQLVESGGGLVQPKGSLKLSCAASGFTFNTYAMNWVRQAPGKGLEWVARIRSKSNNYATYYADSVKDRFTISRDDSQSMLYLQMNNLKTEDTAMYYCVAYGSRNYWGQGTTLTVSS VL: DIVMTQSPSSLTVTAGEKVTMSCKSSQSLLNSGNQKNYLTWYQQKPGQPPKLLIYWASTRESGVPDRFTGSGSGTDFTLTISSVQAEDLAVYYCQNDYSYPYTFGGGTKLEIKR | % positive cell binding [21]: 2%
2 | 234 MFI | 295 MFI | 1240 MFI | 65 MFI | 314 MFI | 3% | 1% | 1% | < 1% | < 1% | 1% | 1% | 1% | < 1% | < 1% | 3% | < 1% | < 1% | 2% | 1% | antibody 55-31 (antibody, mouse IgM, V domains shown, Mouse IgM, kappa from a hybridoma; tested as hybridoma culture supernatant) VH: QVQLQQPGAELVKPGTSVKLSCKASGYNFTSYWINWVKLRPGQGLEWIGDIYPGSGSTNYNEKFKSKATLTVDTSSSTAYMQLSSLASEDSALYYCARSAYRYDWFAYWGQGTLVTVSA VL: DIQMTQSPASLSVSVGETVTITCRASENIYSNLAWYQQKQGKSPQLLVYAATNLADGVPSRFSGSGSGTQYSLKINSLQSEDFGSYYCQHFWGTPYTFGGGTKLEIKR | % positive cell binding [21]: 1%
3 | 823 MFI | 1600 MFI | 11 MFI | 141 MFI | 4910 MFI | 1% | < 1% | 1% | < 1% | < 1% | 1% | < 1% | 1% | < 1% | < 1% | 4% | < 1% | < 1% | 3% | 1% | antibody 6-90 (antibody, mouse IgM, V domains shown, Mouse IgM, kappa from a hybridoma; tested as hybridoma culture supernatant) VH: EVELQQFGIEMVKPGASVKISCKASGYIFTDYHMDWVRQSHGKSLEWIGDIDPKYDRVTYNQKFKGKASLTADKSSSTAYMELRSLTSEDTAVYYCAKTGAYGDYLAYWGQGTLVTVSA VL: DLVMTQTPLSLPVSLGDQASISCRSSQSLVHSDGNTYFYWYLQKPGQSPKLLIYKVSNRFSGVPDRFSAGGSGTYFTLKISRVEAEDLGVYFCSQTTHFPPTFGGGTKLEIKR | % positive cell binding [21]: 2%
